Data published in US20060253917A1 (published 2006).

Assays:
OsMADS1 aa 73-239 = biological target: T1, OsMADS1 aa 73-239 (Oryza sativa, UniProt A2XDY1 73-239); experiment: Y2H; output trait library
T1 construct: prey, AD fusion; also called PN19788
T1 sequence: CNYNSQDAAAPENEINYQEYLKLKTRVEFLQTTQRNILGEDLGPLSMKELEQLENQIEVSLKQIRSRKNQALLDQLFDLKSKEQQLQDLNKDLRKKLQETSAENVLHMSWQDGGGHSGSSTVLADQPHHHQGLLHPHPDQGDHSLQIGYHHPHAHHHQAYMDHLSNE
How it was run: (§1)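 Protein-protein interactions were detected with an automated, high-throughput yeast two-hybrid assay provided by Myriad Genetics Inc. (Salt Lake City, Utah). A bait clone encoding a defined amino-acid fragment of a rice protein was screened against a rice prey library, either the input trait or the output trait library. Prey clones were retrieved, and their encoding sequences were compared by BLAST against databases to identify the interacting proteins.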

OsMADS5 aa 108-225 = biological target: T2, OsMADS5 aa 108-225 (Oryza sativa, UniProt A2Y9P0 108-225); experiment: Y2H; output trait library
T2 construct: prey, AD fusion; also called PN20770
T2 sequence: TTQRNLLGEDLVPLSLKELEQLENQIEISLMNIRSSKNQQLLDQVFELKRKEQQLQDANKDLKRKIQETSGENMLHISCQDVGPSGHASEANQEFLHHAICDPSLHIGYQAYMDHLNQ
How it was run: as §1

OsMADS8 aa 79-248 = biological target: T3, OsMADS8 aa 79-248 (Oryza sativa, UniProt Q9SAR1 79-248); experiment: Y2H; output trait library
T3 construct: prey, AD fusion; also called PN20778
T3 sequence: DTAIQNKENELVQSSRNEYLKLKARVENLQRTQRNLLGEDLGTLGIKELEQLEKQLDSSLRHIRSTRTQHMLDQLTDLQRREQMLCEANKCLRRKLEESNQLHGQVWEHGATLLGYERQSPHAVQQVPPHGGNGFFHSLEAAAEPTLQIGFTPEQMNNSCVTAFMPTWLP
How it was run: as §1

OsMADS45 aa 98-249 = biological target: T4, OsMADS45 aa 98-249 (Oryza sativa, UniProt P0C5B0 98-249); experiment: Y2H; output trait library
T4 construct: prey, AD fusion; also called PN20231
T4 sequence: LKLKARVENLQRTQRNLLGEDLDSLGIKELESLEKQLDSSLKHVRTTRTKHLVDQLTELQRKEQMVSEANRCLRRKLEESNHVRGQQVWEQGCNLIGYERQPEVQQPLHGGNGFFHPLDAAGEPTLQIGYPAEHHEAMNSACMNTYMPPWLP
How it was run: as §1

OsMADS45 aa 69-249 = biological target: T5, OsMADS45 aa 69-249 (Oryza sativa, UniProt P0C5B0 69-249); experiment: Y2H; output trait library
T5 construct: prey, AD fusion; also called PN20231
T5 sequence: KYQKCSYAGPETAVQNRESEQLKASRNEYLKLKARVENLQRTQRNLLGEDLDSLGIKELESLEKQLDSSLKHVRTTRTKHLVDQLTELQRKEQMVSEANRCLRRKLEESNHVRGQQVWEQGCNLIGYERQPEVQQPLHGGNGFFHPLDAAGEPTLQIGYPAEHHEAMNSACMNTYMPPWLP
How it was run: as §1

OsBAA81880 aa 2-168 = biological target: T6, OsBAA81880 aa 2-168 (Oryza sativa, UniProt Q9XJ66 2-168); experiment: Y2H; output trait library
T6 construct: prey, AD fusion; also called PN20837; O. sativa MADS box-like protein
How it was run: as §1

OsBAA81880 aa 24-203 = biological target: T7, OsBAA81880 aa 24-203 (Oryza sativa, UniProt Q9XJ66 24-203); experiment: Y2H; output trait library
T7 construct: prey, AD fusion; also called PN20837
How it was run: as §1

OsMADS8 aa 75-248 = biological target: T8, OsMADS8 aa 75-248 (Oryza sativa, UniProt Q9SAR1 75-248); experiment: Y2H; input trait library
T8 construct: prey, AD fusion; also called PN20778
T8 sequence: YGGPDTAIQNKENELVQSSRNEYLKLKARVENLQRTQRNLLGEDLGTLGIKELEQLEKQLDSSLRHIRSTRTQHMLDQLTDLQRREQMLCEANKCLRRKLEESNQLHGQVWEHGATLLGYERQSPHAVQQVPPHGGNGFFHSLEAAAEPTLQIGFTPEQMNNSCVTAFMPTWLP
How it was run: as §1

OsMADS17 aa 106-249 = biological target: T9, OsMADS17 aa 106-249 (Oryza sativa, UniProt Q7XUN2 106-249); experiment: Y2H; input trait library
T9 construct: prey, AD fusion; also called PN20914; O. sativa MADS box transcription factor MADS17
T9 sequence: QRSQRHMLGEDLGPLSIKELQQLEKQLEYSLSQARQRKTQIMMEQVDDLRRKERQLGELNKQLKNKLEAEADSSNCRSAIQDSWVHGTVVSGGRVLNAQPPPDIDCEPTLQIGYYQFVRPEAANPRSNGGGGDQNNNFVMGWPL
How it was run: as §1

OsMADS45 aa 96-249 = biological target: T10, OsMADS45 aa 96-249 (Oryza sativa, UniProt P0C5B0 96-249); experiment: Y2H; input trait library
T10 construct: prey, AD fusion; also called PN20231
T10 sequence: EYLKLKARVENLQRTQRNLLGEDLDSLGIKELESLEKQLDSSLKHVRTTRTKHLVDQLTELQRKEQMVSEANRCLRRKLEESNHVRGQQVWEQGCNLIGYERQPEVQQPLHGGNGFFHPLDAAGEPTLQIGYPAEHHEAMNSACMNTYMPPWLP
How it was run: as §1

OsPN22834 aa 112-278 = biological target: T11, OsPN22834 aa 112-278 (Oryza sativa, UniProt Q01IK0 110-276); experiment: Y2H; input trait library
T11 construct: prey, AD fusion; also called Novel protein PN22834, similar to Oshox6, fragment
T11 sequence: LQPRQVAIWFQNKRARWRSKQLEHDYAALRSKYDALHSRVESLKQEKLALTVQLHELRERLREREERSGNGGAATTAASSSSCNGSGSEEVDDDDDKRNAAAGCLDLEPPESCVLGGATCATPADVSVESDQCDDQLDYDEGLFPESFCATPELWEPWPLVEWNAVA
How it was run: as §1

OsMADS1 aa 100-231 = biological target: T12, OsMADS1 aa 100-231 (Oryza sativa, UniProt A2XDY1 100-231); experiment: Y2H; input trait library
T12 construct: prey, AD fusion; also called PN19788
T12 sequence: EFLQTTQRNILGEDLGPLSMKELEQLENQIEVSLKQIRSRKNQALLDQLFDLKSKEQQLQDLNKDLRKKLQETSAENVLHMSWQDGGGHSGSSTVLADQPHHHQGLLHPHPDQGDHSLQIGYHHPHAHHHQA
How it was run: as §1

OsMADS1 aa 95-257 = biological target: T13, OsMADS1 aa 95-257 (Oryza sativa, UniProt A2XDY1 95-257); experiment: Y2H; output trait library
T13 construct: prey, AD fusion; also called PN19788
T13 sequence: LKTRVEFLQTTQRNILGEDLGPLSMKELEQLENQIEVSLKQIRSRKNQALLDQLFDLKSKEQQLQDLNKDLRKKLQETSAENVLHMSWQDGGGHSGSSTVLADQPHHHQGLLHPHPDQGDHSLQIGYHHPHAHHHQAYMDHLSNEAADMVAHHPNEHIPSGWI
How it was run: as §1

OsMADS5 aa 109-225 = biological target: T14, OsMADS5 aa 109-225 (Oryza sativa, UniProt A2Y9P0 109-225); experiment: Y2H; output trait library
T14 construct: prey, AD fusion; also called PN20770
T14 sequence: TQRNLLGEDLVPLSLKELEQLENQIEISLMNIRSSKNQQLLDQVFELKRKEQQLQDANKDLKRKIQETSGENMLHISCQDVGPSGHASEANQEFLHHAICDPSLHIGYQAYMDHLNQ
How it was run: as §1

OsMADS6 aa 116-250 = biological target: T15, OsMADS6 aa 116-250 (Oryza sativa, UniProt Q6EU39 116-250); experiment: Y2H; output trait library
T15 construct: prey, AD fusion; also called PN20233
T15 sequence: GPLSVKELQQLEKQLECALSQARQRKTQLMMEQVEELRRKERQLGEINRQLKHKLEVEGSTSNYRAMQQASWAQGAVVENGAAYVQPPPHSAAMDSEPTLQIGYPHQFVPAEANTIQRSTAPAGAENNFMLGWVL
How it was run: as §1

OsMADS8 aa 107-248 = biological target: T16, OsMADS8 aa 107-248 (Oryza sativa, UniProt Q9SAR1 107-248); experiment: Y2H; output trait library
T16 construct: prey, AD fusion; also called PN20778; O. sativa MADS box protein MADS8
T16 sequence: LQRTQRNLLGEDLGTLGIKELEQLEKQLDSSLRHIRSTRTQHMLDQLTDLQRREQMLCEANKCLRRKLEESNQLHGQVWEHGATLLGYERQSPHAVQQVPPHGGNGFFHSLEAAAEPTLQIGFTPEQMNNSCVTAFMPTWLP
How it was run: as §1

OsMADS45 aa 75-249 = biological target: T17, OsMADS45 aa 75-249 (Oryza sativa, UniProt P0C5B0 75-249); experiment: Y2H; output trait library
T17 construct: prey, AD fusion; also called PN20231
T17 sequence: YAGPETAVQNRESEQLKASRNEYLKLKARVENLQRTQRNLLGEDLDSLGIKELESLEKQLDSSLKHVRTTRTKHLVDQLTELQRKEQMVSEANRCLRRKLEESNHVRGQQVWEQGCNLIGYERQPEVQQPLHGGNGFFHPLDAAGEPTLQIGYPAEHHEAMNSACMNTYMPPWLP
How it was run: as §1

OsFDRMADS6 aa 1-186 = biological target: T18, OsFDRMADS6 aa 1-186 (Oryza sativa, UniProt P0C5B1 1-186); experiment: Y2H; output trait library
T18 construct: prey, AD fusion; also called PN19766
T18 sequence: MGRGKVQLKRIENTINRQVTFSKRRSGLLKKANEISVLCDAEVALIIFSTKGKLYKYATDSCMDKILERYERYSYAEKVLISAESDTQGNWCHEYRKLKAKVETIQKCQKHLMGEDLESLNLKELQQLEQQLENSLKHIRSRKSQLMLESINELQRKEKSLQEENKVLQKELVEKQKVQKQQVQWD
How it was run: as §1

OsFDRMADS8 aa 53-233 = biological target: T19, OsFDRMADS8 aa 53-233 (Oryza sativa, UniProt A2Z9Q7 53-233); experiment: Y2H; output trait library
T19 construct: prey, AD fusion; also called PN20698
T19 sequence: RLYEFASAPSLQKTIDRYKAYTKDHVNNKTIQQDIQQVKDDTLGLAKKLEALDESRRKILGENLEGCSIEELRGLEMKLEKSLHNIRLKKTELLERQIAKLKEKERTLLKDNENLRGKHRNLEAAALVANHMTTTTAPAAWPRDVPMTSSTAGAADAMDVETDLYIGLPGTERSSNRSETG
How it was run: as §1

OsRAP1B aa 30-180 = biological target: T20, OsRAP1B aa 30-180 (Oryza sativa, UniProt Q10CQ1 30-180); experiment: Y2H; input trait library
T20 construct: bait, Gal4 DBD fusion; also called PN20232
T20 sequence: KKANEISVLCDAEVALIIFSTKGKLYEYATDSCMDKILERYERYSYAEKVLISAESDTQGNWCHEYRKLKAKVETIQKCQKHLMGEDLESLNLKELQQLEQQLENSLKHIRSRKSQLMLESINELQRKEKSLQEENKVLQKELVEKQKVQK
How it was run: as §1

Measured: binding result

T7 sequence (Q9XJ66 24-203): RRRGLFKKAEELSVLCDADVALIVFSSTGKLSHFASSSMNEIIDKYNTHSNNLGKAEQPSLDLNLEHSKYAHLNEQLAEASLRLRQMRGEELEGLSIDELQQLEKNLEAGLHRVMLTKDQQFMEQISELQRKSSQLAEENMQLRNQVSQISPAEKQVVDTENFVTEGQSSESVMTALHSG
T6 sequence (Q9XJ66 2-168): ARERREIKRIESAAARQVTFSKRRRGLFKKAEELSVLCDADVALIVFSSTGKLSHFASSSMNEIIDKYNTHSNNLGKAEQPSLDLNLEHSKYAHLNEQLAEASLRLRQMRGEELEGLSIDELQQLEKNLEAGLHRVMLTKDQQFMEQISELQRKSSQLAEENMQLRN

B1: OsRAP1B aa 125-235 (other)
chain: LQQLEQQLENSLKHIRSRKSQLMLESINELQRKEKSLQEENKVLQKELVEKQKVQKQQLQWDQTQPQTISSSSSFMMREALPTTNISNYPAAAGERIEDVPAGQPQHVRIG
notes: bait, Gal4 DBD fusion; also called PN20232
binds: OsMADS1 aa 73-239 | OsMADS5 aa 108-225 | OsMADS8 aa 79-248 | OsMADS45 aa 98-249 | OsMADS45 aa 69-249 | OsBAA81880 aa 2-168 | OsBAA81880 aa 24-203

B2: OsRAP1B aa 1-247 (other)
chain: MGRGKVQLKRIENKINRQVTFSKRRSGLLKKANEISVLCDAEVALIIFSTKGKLYEYATDSCMDKILERYERYSYAEKVLISAESDTQGNWCHEYRKLKAKVETIQKCQKHLMGEDLESLNLKELQQLEQQLENSLKHIRSRKSQLMLESINELQRKEKSLQEENKVLQKELVEKQKVQKQQLQWDQTQPQTISSSSSFMMREALPTTNISNYPAAAGERIEDVPAGQPQHVRIGLPPWMLSHING
notes: as for B1
binds: OsMADS8 aa 75-248 | OsMADS17 aa 106-249 | OsMADS45 aa 96-249 | OsPN22834 aa 112-278 | OsMADS1 aa 100-231 | OsMADS1 aa 95-257 | OsMADS5 aa 109-225 | OsMADS6 aa 116-250 | OsMADS8 aa 107-248 | OsMADS45 aa 75-249 | OsFDRMADS6 aa 1-186 | OsFDRMADS8 aa 53-233

B3: OsMADS5 aa 106-225 (other)
chain: LQTTQRNLLGEDLVPLSLKELEQLENQIEISLMNIRSSKNQQLLDQVFELKRKEQQLQDANKDLKRKIQETSGENMLHISCQDVGPSGHASEANQEFLHHAICDPSLHIGYQAYMDHLNQ
notes: prey, AD fusion; also called PN20770
binds: OsRAP1B aa 30-180
